Experimental data: the supplement of paper PMC10567573
± gives the standard deviation.

Assay: protein stability index of a GFP-peptide fusion (GPS, HEK-293T) (PSI 1-6); higher = more stable
[1] = treatment: DMSO, c terminus: a fixed tail appended
[2] = treatment: MLN4924 1 uM, 8 h, c terminus: a fixed tail appended
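Note: 24-mer peptide tiles fused after GFP, lentivirally expressed, FACS-sorted into six equal bins by GFP/DsRed ratio, decoded by Illumina sequencing, PSI is the read-weighted mean bin number.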

Sequence | protein stability index [1] | protein stability index [2] | protein stability index (treatment: DMSO, c terminus: native) | protein stability index (treatment: MLN4924 1 uM, 8 h, c terminus: native)
TLYANNVQRVMAQALGIPATECEF [LPCAT4] | 2.49 ± 0.22 | 2.58 ± 0.19 | – | –
MLCSQPGLANSSRVRGRVGTIRPV [C22orf15] | 3.23 ± 0.27 | 3.37 ± 0.2 | – | –
KLLSVIVWMLMLLLAVPNIILTNQ [P2RY14] | 2.79 ± 0.47 | 3.21 ± 0.41 | – | –
SKPSSDLLDLQPDFSSGGAAAAAA [SNAP91] | 4.99 ± 0.37 | 5.027 ± 0.049 | – | –
QPMCEEHEEERINIYCLNCEVPTC [TRIM55] | 4.43 ± 0.2 | 4.31 ± 0.22 | – | –
LLVLLLYAPVGFCLLVLRLFLGIH [AUP1] | 2.21 ± 0.23 | 2.11 ± 0.2 | – | –
KGVNRKLGRTGLYPSYKVREKIET [FUT8] | 3.2 ± 0.31 | 3.4 ± 0.22 | – | –
AEKDRRLKKKHQLLEDARRKGMPF [PPFIA4] | 4.05 ± 0.29 | 4.29 ± 0.16 | – | –
TDQAIFYAVTPLPWCPHLVAVCPI [HDAC6] | 3.09 ± 0.61 | 3.22 ± 0.41 | – | –
AAAAAAPAPPPPAGGATAWGDLLG [SNAP91] | 4.37 ± 0.17 | 4.42 ± 0.081 | – | –
IDKFGFIVGSQGAEGALEEVPLEV [TBC1D10A] | 4.32 ± 0.16 | 4.42 ± 0.34 | – | –
LNQGFLQAKPEKAAVAQKPRSHFT [MYBL2] | 3.88 ± 0.34 | 4.06 ± 0.12 | – | –
VYSDLCEAAEAVRPEERKTCRNPA [ADAMTSL2] | 4.83 ± 0.21 | 4.5 ± 0.49 | – | –
FMEMNQKLFDDCTQQFKAEKLKEK [PPP2R5C] | 4.26 ± 0.31 | 4.43 ± 0.28 | – | –
SMPQKFLGDKGLSDTPYDSSASYE [IKZF1] | 4.74 ± 0.088 | 4.73 ± 0.34 | – | –
AGPYLLNGSYLELSSDRVANSSSE [ADAMTSL2] | 4.09 ± 0.27 | 4.07 ± 0.17 | – | –
LESYEDIHGTLHLERLAYLHARLR [PRAME] | 2.41 ± 0.18 | 2.61 ± 0.29 | – | –
VDITPYLDQLDESLRDKVLQLQKG [INTS3] | 3.79 ± 0.071 | 4.06 ± 0.1 | – | –
RQVVQDLLKAGAEVNVLNDMRDTP [OSBPL1A] | 4.45 ± 0.21 | 4.24 ± 0.25 | – | –
LELSYGFENGQKAAVVHHFESFPA [TOR1AIP2] | 2.52 ± 0.58 | 2.42 ± 0.18 | – | –
RHFFTSWASCLQYDFDTQYAFVGD [WDFY1] | 2.37 ± 0.28 | 2.39 ± 0.17 | – | –
PKTQACSGSESPSDSGKDLPEPSK [MYCL] | 5.36 ± 0.23 | 5.63 ± 0.25 | – | –

Sequence | protein stability index [1] | protein stability index [2] | protein stability index (treatment: DMSO, c terminus: native) | protein stability index (treatment: MLN4924 1 uM, 8 h, c terminus: native)
FLSFSMYQSFVQFLQYYYQSGCLY [TMEM120A] | 3.02 ± 0.39 | 3.54 ± 0.45 | – | –
LRERVKKVKRSLRQARKKGRHLEL [CCDC3] | 3.36 ± 0.39 | 3.58 ± 0.71 | – | –
AKAAALSTKTPAPCSEFMEPSSDP [SPAG8] | 5.1 ± 0.33 | 5.41 ± 0.19 | – | –
GNFDWVGNDFTQNAGTGLVINQAD [PLD5] | 4.7 ± 0.69 | 4.47 ± 0.27 | – | –
TELRRSGSSRSPGSKARAEGRGPV [PLEKHN1] | 4.84 ± 0.31 | 4.96 ± 0.52 | – | –
SVKLRGSSLFMDTEKSGKREFDVR [WEE1] | 3.86 ± 0.36 | 3.94 ± 0.095 | – | –
SPIKKVRKSLALDIVDEDVKLMMS [MYBL2] | 3.6 ± 0.34 | 3.68 ± 0.43 | – | –
SSSKRYTMSRSLDGASVNENHEIY [EPB41L3] | 4.11 ± 0.63 | 4 ± 0.45 | – | –
QRIKSQERETEATRGRGGLLRDHI [MOG] | 4.59 ± 0.18 | 4.78 ± 0.11 | – | –
FDSPSLCSSSTRSVLKRPERSQEE [CDC25A] | 5.04 ± 0.31 | 5.12 ± 0.16 | – | –
QAEIENKRRQLEDERRQLQHLKSK [PALM] | 5.02 ± 0.17 | 4.97 ± 0.36 | – | –
STQLEMQLEKPKPVKPVTFSTGIK [MNAT1] | 4.28 ± 0.16 | 4.43 ± 0.22 | – | –
APRLAVAVPAVTSADSQFSQTTQA [LYSMD4] | 4.76 ± 0.16 | 4.81 ± 0.19 | – | –
DLYNWEVAIFGPPNTYYEGGYFKA [CDC34] | 2.65 ± 0.5 | 2.51 ± 0.95 | – | –
MARGRKMSKPRAVEAAAAAAAVAA [KMT5A] | – | 4.4 ± 0.55 | – | –
VTIKHVACGDFFTACLTDRGIIMT [NEK8] | 2.96 ± 0.5 | 2.63 ± 0.35 | – | –
VFKCVKRLDGCIYAIKRSKKPLAG [WEE1] | 2.23 ± 0.27 | 2.28 ± 0.15 | – | –
ILEHAHRGEQTTSQVSWEQDLKLF [FCHSD1] | 3.43 ± 0.44 | 3.53 ± 0.68 | – | –
VTATDQKVEKMLISSIKEKYPSHS [IMPA1] | 3.94 ± 0.14 | 4.27 ± 0.23 | – | –
EGQDLQHISNQKMPTGPPEDRLSL [DRICH1] | 5.11 ± 0.37 | 5.03 ± 0.26 | – | –
YKILLDVKTRLEQEIATYRRLLEG [KRT17] | 2.32 ± 0.14 | 2.39 ± 0.37 | – | –
FLDERLYCESHAKARVKPPEGYDV [PDLIM4] | 2.78 ± 0.8 | 3.23 ± 0.93 | – | –

Sequence | protein stability index [1] | protein stability index [2] | protein stability index (treatment: DMSO, c terminus: native) | protein stability index (treatment: MLN4924 1 uM, 8 h, c terminus: native)
ELADARRALDDTARERAKLQIELG [LMNB1] | 4.72 ± 0.075 | 4.69 ± 0.15 | – | –
RFPLQEENSVTHHEVKCQGKPLAG [KMT5A] | 4.69 ± 0.27 | 4.55 ± 0.38 | – | –
ESENASLREKLRLREAEIARIRDE [LRRC45] | 5.26 ± 0.17 | 5.11 ± 0.11 | – | –
YFITLGTEIAEQEGNQKGEQATSL [KCNA1] | 3.79 ± 0.1 | 3.84 ± 0.24 | – | –
TASSLVKINLQGDIVDRGSTNLGV [ADD1] | 3.36 ± 0.68 | 3.36 ± 0.25 | – | –
IIPRTVIDGLDLLKKEHPGARDGI [SMG5] | 3.2 ± 0.31 | 3.39 ± 0.23 | – | –
DWRKNIEEKSGMEGRKKMFESES [TNNI2] | – | – | 3.04 ± 0.93 | 3.86 ± 0.92
KGTFSDVTFKLDDGAISAHKPLLI [RHOBTB1] | 2.47 ± 0.32 | 2.55 ± 0.33 | – | –
NLYSWDDFMELGRSIPDTQLEQVI [ACSBG2] | 3.25 ± 0.25 | 3.38 ± 0.31 | – | –
PRSSLAESFFVDYEENEGAGPYLL [ADAMTSL2] | 3.91 ± 0.17 | 3.82 ± 0.17 | – | –
IGGAAPSLGALDLLGPATGCLLDD [SERTAD1] | 4.28 ± 0.19 | 4.17 ± 0.2 | – | –
KDRMKSDHKRETERVVREALEKLR [ZMYND11] | 3.18 ± 0.13 | 3.58 ± 0.32 | – | –
FLFPIDISLVKREHDFLDRDAIEA [DLC1] | 2.66 ± 0.57 | 2.72 ± 0.31 | – | –
CLDPIIYFFLCQPFREILCKKLHI [P2RY14] | 2.74 ± 0.2 | 3.252 ± 0.02 | – | –
TFGAAACSIGFAVRYLNAYTGIVL [POP5] | 3.18 ± 0.57 | 3.45 ± 0.15 | – | –
ATAVGGGFFLLQLANHTGYIKVDW [FUNDC2] | 3.27 ± 0.8 | 3.08 ± 0.47 | – | –
EEPELSPAYLISEAMRRSRMSLYC [GFOD1] | 2.43 ± 0.23 | 2.37 ± 0.3 | – | –
VRRGHSHLAPSEAKAADSPTRNDL | 4.96 ± 0.16 | 4.9 ± 0.2 | – | –
SSSSSGVLMVGPNFRVGKKIGCGN [CSNK1G1] | 3.58 ± 0.34 | 3.68 ± 0.11 | – | –
GKEQSRRDDLEALGHMFMYFLRGS [CSNK1G3] | 2.38 ± 0.34 | 2.29 ± 0.45 | – | –
SKSSHPLIRSLFHGFLFMIFQIGV [SOAT1] | 2.81 ± 0.84 | 2.72 ± 0.18 | – | –
